Measured values from the RNAGym collection of RNA variant scans (doi:10.1073/pnas.2313332121).
This sample holds only a part of the variants without activity.

B1: TPR 5TU (parent)
chain: GGAUCUUCUCGAUCUAACAAAAAAGACAAAUCUGCCACAAAGCUUGAGAGCAUCUUCGGAUGCAGAGGCGGCAGCCUUCGGUGGCGCGAUAGCGCCAACGUUCUCAACUAUGACACGCAAAACGCGUGCUCCGUUGAAUGGAGUUUAUCAUG

Variants of: B1
Experiment: polymerase ribozyme fitness, log enrichment relative to wild type (log ratio); higher = more active; in vitro selection for triplet polymerase activity
How it was run: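 One round of in vitro selection, in triplicate, was applied to PCR-built, transcribed mutant libraries of each subunit of a heterodimeric triplet polymerase ribozyme. The steps were annealing with a biotinylated primer, partner subunit and triplets, incubation frozen at −7 °C, gel excision of extended constructs, streptavidin-bead capture and RT-PCR. Fitness is the logarithm, base 2, of genotype enrichment over wild-type enrichment from inverse-variance-weighted replicate averages of Illumina-sequenced inputs and outputs, keeping genotypes with ≥10 input reads and ≥1 read per output.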

Variant | polymerase ribozyme fitness (log ratio)
U9C A52G U53A C114G U145G | ≤ -4.2
U9G C27G U55A C57A G59A | ≤ -4.2
U9G A47G | -3.86
C8U U15C A17U A40G G42C U61G C75U C93U C129U G133U | ≤ -4.2
C8U C95U | -2.24
C8A A12G A41C A47G U53A G143U U151C | ≤ -4.2
C8A U31C A41U G58A G71A C76U C125U A142G | ≤ -4.2
U7A U61A G62A G71C C103G | ≤ -4.2
U9A C27U C36A G42C C69A G80A G136U G141C | ≤ -4.2
C8A C14G C27U G46A C76A U109G C131U G143A | ≤ -4.2
C10G | -2.78
C10A | -2.83
C8A A17C A24G A30G C35G G81C A89C G141C | -3.67
C8G G25C U53G C63U C108A | ≤ -4.2
C8U A52G | -3.63
U9C G84A C103U | ≤ -4.2
U9G A12U A19U A21U G58A C76U G84A A106U | ≤ -4.2
C10A C14U A26U A30G G84A U139G A142U | ≤ -4.2
C8A C14G U55A C85U G88U A138U | ≤ -4.2
U7G A26C U44A G74C A115C | ≤ -4.2
C8A C27U C76U | ≤ -4.2

Variant | polymerase ribozyme fitness (log ratio)
U9G A29G C85U A121U G128U | ≤ -4.2
U7C G68U A73G U82A G92A U101C C116A A137C | ≤ -4.2
U9G A17G A52U C75G G84A C105U | ≤ -4.2
C8A A40U C57U U78A A119C | ≤ -4.2
C8A A30U G71A U82G C95A C103G U134A G141U | ≤ -4.2
C8U G50U G71C C85G | ≤ -4.2
C10A A23U G83U | ≤ -4.2
C8A A22C C35U G48C A73U | ≤ -4.2
U7G C96U C129U A137G | ≤ -4.2
C8U A19G A39U C54U U61A G71A U77A G80C G88U G112C A113G C125G A150U | ≤ -4.2
C8U A20C A49G U53A C95A A106G C118G | ≤ -4.2
C8G A22U C85U C103U | ≤ -4.2
C8U G11C A23C A60G G94U G136U U144A | ≤ -4.2
C8G G59C G86C G117U | ≤ -4.2
U7C C27G C96U | ≤ -4.2
C8G U13G A40C U77A G94A A97C C99U A113G G117U U139G U144G | ≤ -4.2
C8G A30C C75A G86U C118G | ≤ -4.2
U7G C10U C35U A64G C96A C129A | ≤ -4.2
U7G A19C A40G U56A A120G A150C | ≤ -4.2
U9A C76A C85U G100C U104G A115U | ≤ -4.2
U7G C57U G59C G88A C93A A115C | ≤ -4.2

Variant | polymerase ribozyme fitness (log ratio)
U9A A22U A39G C96G U109G | ≤ -4.2
U9C C18G A21G A29U C87G | ≤ -4.2
U7C A16C C35U C63U A121G G133C | ≤ -4.2
U7G A20C U56G U146G | -3.82
C8A C85A | -3.27
C8A U15G C95U A98G C149U A150U | -4.06
C8A U44C C79G G86C G140U | ≤ -4.2
C8U G74U C79U C93A G143U | ≤ -4.2
C10A A91U U101G | -4.05
C10A C93U G140C | ≤ -4.2
U9G U44G G50A U82C C95U U139G | ≤ -4.2
C8A A24G U61A C76G U78C G84U | ≤ -4.2
C8U C93U C99G | ≤ -4.2
C8U C32A A49G G92A C96U U127G A138G | ≤ -4.2
C8U A39G G86U U102C U111G U144C G152A | ≤ -4.2
U9A A16U C57U G70A C79A G88U C95U A119U U151A | ≤ -4.2
U9A A16U U56A G84A C131U | ≤ -4.2
U9C U13A U15A C76U G86U | -4.11
C8G A29U A41G U61A G68A U82C A89G C116U | ≤ -4.2
C8U A17G A21U C57U G80A C96G | ≤ -4.2
C10G A20C C36A U53A U134A A142U | ≤ -4.2

Variant | polymerase ribozyme fitness (log ratio)
U9G C96U A97G C103G A115U U127A | ≤ -4.2
C8A U31G A37G G42A G83A | ≤ -4.2
C8A U55A C79U G84A C108G G124A | ≤ -4.2
C10A U53A C85A C96G G100A U127C U146A | ≤ -4.2
U9C C54A C87G U134A | ≤ -4.2
C10A A29C U44G G58A A60G A97U G141C | ≤ -4.2
U7C G48U G84A G117C | ≤ -4.2
C8G G50A A66C G84A | ≤ -4.2
C8U C18G G50C G58U A73G C76A C93A C116A A120C | ≤ -4.2
U9C A37U G92A U102G C108U | ≤ -4.2
U7G A23G C32A A115G | ≤ -4.2
U9A U15G G50C G94A U135C G143A | ≤ -4.2
C8A C114G A142C | ≤ -4.2
C8G A21C | -3.31
U7G A17C A24U A52G A64G C72G C85U G88U G92U C93G A119U | ≤ -4.2
C8A C116U U135C A150G | ≤ -4.2
C8A G50U G74C G80A C85U U139C G141C | ≤ -4.2
U9A A21U | -3.81
U7G A21U C54A A66C A91C G136A | ≤ -4.2
C10G A12U A22G C35G G94A C95U C99A U111C | ≤ -4.2
U9A A64G A89U G92A C131G | ≤ -4.2
